B1: recombinant IRAK4 (protein)
chain: MNKPITPSTYVRCLNVGLIRKLSDFIDPQEGWKKLAVAIKKPSGDDRYNQFHIRRFEALLQTGKSPTSELLFDWGTTNCTVGDLVDLLIQNEFFAPASLLLPDAVPKTANTLPSKEAITVQQKQMPFCDKDRTLMTPVQNLEQSYMPPDSSSPENKSLEVSDTRFHSFSFYELKNVTNNFDERPISVGGNKMGEGGFGVVYKGYVNNTTVAVKKLAAMVDITTEELKQQFDQEIKVMAKCQHENLVELLGFSSDGDDLCLVYVYMPNGSLLDRLSCLDGTPPLSWHMRCKIAQGAANGINFLHENHHIHRDIKSANILLDEAFTAKISDFGLARASEKFAQTVMTSRIVGTTAYMAPEALRGEITPKSDIYSFGVVLLEIITGLPAVDEHREPQLLLDIKEEIEDEEKTIEDYIDKKMNDADSTSVEAMYSVASQCLHEKKNKRPDIKKVQQLLQEMTAS
Chain of myc-IRAK1c-KD (chain, as listed by the source): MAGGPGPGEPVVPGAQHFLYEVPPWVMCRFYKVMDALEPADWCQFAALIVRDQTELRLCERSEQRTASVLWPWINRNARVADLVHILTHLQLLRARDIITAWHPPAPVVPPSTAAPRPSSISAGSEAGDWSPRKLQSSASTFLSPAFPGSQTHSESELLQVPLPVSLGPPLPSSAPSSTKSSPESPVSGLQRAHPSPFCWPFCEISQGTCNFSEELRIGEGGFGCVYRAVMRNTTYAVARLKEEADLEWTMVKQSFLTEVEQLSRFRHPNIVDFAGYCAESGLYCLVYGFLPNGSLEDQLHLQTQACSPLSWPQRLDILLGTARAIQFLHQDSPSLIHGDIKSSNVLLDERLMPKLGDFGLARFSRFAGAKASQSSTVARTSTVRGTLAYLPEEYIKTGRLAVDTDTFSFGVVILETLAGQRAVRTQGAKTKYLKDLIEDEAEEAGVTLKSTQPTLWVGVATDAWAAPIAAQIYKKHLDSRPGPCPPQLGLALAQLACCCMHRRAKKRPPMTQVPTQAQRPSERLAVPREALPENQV
Chain of myc-IRAK1c (chain, as listed by the source): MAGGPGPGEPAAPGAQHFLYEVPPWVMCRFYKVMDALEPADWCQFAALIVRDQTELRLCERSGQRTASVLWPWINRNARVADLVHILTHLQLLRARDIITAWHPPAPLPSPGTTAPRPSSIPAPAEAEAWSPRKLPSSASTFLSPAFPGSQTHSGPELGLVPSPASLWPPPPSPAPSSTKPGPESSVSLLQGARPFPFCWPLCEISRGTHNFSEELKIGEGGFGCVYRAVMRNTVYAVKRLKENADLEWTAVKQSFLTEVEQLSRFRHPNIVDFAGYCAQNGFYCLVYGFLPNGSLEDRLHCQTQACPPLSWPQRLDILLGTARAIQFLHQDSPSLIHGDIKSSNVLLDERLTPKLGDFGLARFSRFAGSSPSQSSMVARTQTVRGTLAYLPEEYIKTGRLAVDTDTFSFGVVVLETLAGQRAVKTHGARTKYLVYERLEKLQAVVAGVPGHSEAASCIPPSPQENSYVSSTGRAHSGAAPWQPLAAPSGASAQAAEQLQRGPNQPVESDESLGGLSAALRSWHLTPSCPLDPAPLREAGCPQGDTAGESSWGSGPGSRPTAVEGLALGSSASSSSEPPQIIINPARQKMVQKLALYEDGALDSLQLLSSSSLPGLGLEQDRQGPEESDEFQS
Turning to B1, the “in vitro kinase assay on anti-myc immunoprecipitates, autoradiography” value in the series with myc-IRAK1c and in the series with myc-IRAK1c-KD was “Neither IPAK1c nor IPAK1c-KD showed any phosphorylation in the presence of IRAK4” each time.

Source of the values: patent US20070243181.
